Laboratory results reported in patent US20210395319A1 (OLIGOMERIX, published 2021).

Biological target: the molecule itself
Experiment: self-association: overnight incubation at 37 °C in pH neutral buffer, SDS-PAGE on a 4-20% gradient gel
Protocol: Protein preparations of the N-terminal (21.5 kDa) and C-terminal (18.5 kDa) were incubated at 4 μM concentration in pH neutral buffer and incubated overnight at 37° C.

B1: N-terminal portion of tau protein (amino acids 1-184) (other, UniProt P10636-8 1-184, looked up)
chain: MAEPRQEFEVMEDHAGTYGLGDRKDQGGYTMHQDQEGDTDAGLKESPLQTPTEDGSEEPGSETSDAKSTPTAEDVTAPLVDEGAPGKQAAAQPHTEIPEGTTAEEAGIGDTPSLEDEAAGHVTQARMVSKSKDGTGSDDKKAKGADGKTKIATPRGAAPPGQKGQANATRIPAKTPPAPKTPPS
notes: range 1-184; Printed mass 21.5 kDa, charge approximately -7.2; also called tau fragment (21.5 KD) that encompasses the N-terminus; N-terminal (21.5 kDa)
  binding result: no binding (tested: 4 µM)
